The series can be described thus: yeast display, Sf9 membrane polyspecificity reagent, FACS + sequencing; frameworks hold sequencing errors. The method, boiled down:
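In a synthetic yeast display library (Saccharomyces cerevisiae BJ5465), nanobody expression was induced with galactose for 36–48 hours. FACS gates were set low and high (top ~1%) using anti-HA fluorescence for expression and streptavidin fluorescence for binding of the Sf9 membrane reagent. Each polyreactivity label is drawn from the gate of origin.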
For “QVQIVESGGGLVQAGGSLRLSCAASGRTFYFYVMGWYRQAPGKERELVAAISWSGTSTYYADSVKGRFTISRDNAKNTVYLQMNSLKPEDTAVYYCNGITRYDYWGQGTQVTVSS”, the “polyreactivity (PSR sort gate)” value is recorded as “low polyreactivity”.
On to “QVQIVESGGGLVQAGGSLRLSCAASGRTFYLNAMGWYRQAPGKERELVAANRFSGGSTYYADSVKGRFTISRDNAQNTVYLQMNSLKPEDTAVYYCIAGADHALYPTVSEYGYWGQGTQVTVSS”, for which the “polyreactivity (PSR sort gate)” value is reported as “low polyreactivity”.
To “QVQIVESGGGLVQAGGSLRLSCAASGSIFARMAMGWYRQAPGKEWELVAAITTGGITNYADSLKGLFTISRDNAKNTVYLQMNSLKPDDTAVYYCAATSWRYQQSTRYKGRRYYSWGQGTQVTVSS” belongs “high polyreactivity”; to “QVQIVESGGGLVQAGGSLRLSCAASGSIFQGNPMGWYRQAPWKEREFVAAISWSGDSTYYADSVKGRFTISRDNAKYSVYLQMNSLKTEDTAVYYCGADPWDIYRRLSPGDHDYWGQCTQVTVSS”, “low polyreactivity”.
The same measure for “QVQIVESGGGLVQAGGSLRLSCAASGSIFQGYAMGWYRQAPGKERELVAAITNRGGNTYYADSVKGRFTISRDNAKYSVYLQMNSLKPEDTAVYYCAADPRYSHSFSGYYDYWGQGTQVTVSS”: “high polyreactivity”; for “QVQIVESGGGLVQAGGSLRLSCAASGSIFSRNVMGWYRQAPGKERELVAAISRSGGRTYYADSVKGRFTISRDYAKNTVYLQMNSLKPEDTAVYYCNRDIGGTSVLDDYWGQGTQVTVSS”: “low polyreactivity”; for “QVQIVESGGGLVQAGGSLRLSCAASGSIFVWYAMGWYRQAPGKERELVARITSGGRTNYADSVKGRFTISRDNAKNTVYLQMNSLKPEDTAVYYCAAGRVSWSPYYYWGQGTQVTVSS”: “high polyreactivity”.
The same measure for “QVQIVESGGGLVQAGGSLRLSCAASGSIFYRYAMGWYRQAPGKERQLVAAISSGGTTSYADSVKGRFTISRDNAKNTVYLQMNSLKPEDTAVYYCAAFAYGYRYKTYDYWGQGTQVTVSS”: “high polyreactivity”; for “QVQIVESGGGLVQAGGSLRLSCAASGSTFDGNAMGWYRQAPGKERELVATINSDDSKNYSDSVKGSFTISRDNAKNTVYLQMNSLKPEDTAVYYCAAVVSVPELYDYWGQGTQVTVSS”: “low polyreactivity”; for “QVQIVESGGGLVQAGGSLRLSCAASGSTFFANTMGWYRQAPGKERELVAAISWSSVRTYYADSVKGRFTISRDHAKNTVYLQMNSLKPEDTAVYYCAAYSRFRYDYWGQGTQVTVSS”: “high polyreactivity”.
With “QVQIVESGGGLVQAGGSLRLSCAASGSTFGGNAMGWYRQAPGKERELVASITSSGGSTYYADSVKGRFTISRDNAKNTVYLQMNSLKPEDTAVYYCAAGKWYRSPWKYDYWGQGTQVTVSS”, the “polyreactivity (PSR sort gate)” value is “low polyreactivity”.
With “QVQIVESGGGLVQAGGSLRLSCAASGSTFKWYAMGWYRQSTGKERQLVAAITSTDSTTYADSLKGRFTISRDNAKNTVYLHMNSLKPEDTAVYYCNRLYYHWYGGLDYWGLGTQVTVSS”, the “polyreactivity (PSR sort gate)” value was “high polyreactivity”.
Take “QVQIVESGGGLVQAGGSLRLSCAASGSTFLSNAMGWYRQAPGKERELVATISFSGATYADSVKGRFTIARDNAKNTVYLQMNSLKPEDTAVYYCNRATLNYSGKGDTAYDYWGQGTQVTVSS”: the “polyreactivity (PSR sort gate)” value was “low polyreactivity”.
To “QVQIVESGGGLVQAGGSLRLSCAASGSTFSVYAMGWYRQAPGKDRELVVAIRSSGGSTYYAHSVKGRFTISRDNAKNTVYLQMNSLKPEDTAVYYCATRIIVGSYRYDYWGQATQVTVSS” belongs “low polyreactivity”.
Consider “QVQIVESGGGLVQAGGSLRLSCAASGSTFWYNAMGWYRQAPGKERELVAAITWTGDGTYYADSVKGRFTISRDNAKNTVYLQMNSLKPEDTAVYYCAAAYFQWSTSIVGLDAGYDYWGQGTQVNVSS”, for which the “polyreactivity (PSR sort gate)” value is on record as “low polyreactivity”.
To “QVQIVESGGGLVQAGGSLRLSCAASGSTFYRNAMGWYRQAPGKERELVAAIRWTGGNTYYADSVKGRFTISRDNAKNTVYLQMNSLKPEDTAVYYCAARSPLYGHGYWGQGTQVTVSS” belongs “high polyreactivity”; to “QVQIVESGGGLVQAGGSLRLSCAASGSTVQYYAMGWYRQAPGKERELVAAISYTGGSTYYADSVKARFTISRDNAKNSVYLEMSSLKPEDTAVYYCAAGRRGSDTGTEYYWGQGTQVTVSS”, “high polyreactivity”; to “QVQIVESGGGLVQAGGSLRLSCAASGSTYDHYTLGWYRQAPGKERELVAAINRIADSTYYADSVKGRFTNSRDNQKNTVYVQMTSLNPEDTAVYYCAARQFVYSSRIILYDYWGHGTQVTVSS”, “high polyreactivity”.
Regarding “QVQIVESGGGLVQAGGSLRLSCAASGTFARYAMGWYRQAPRKERELVAAITRRGGNTYYADSVKGRFSISRDNAKNTVYLPMNSQKPEDTAVYYCAILGEDTNGYWGQGTQVTVSS”, the “polyreactivity (PSR sort gate)” value was “high polyreactivity”.
As for “QVQIVESGGGLVQAGGSLRLSCAASGYIFIVYTMGWYRQAPGKERELVAAISSGGITDYADSVKGRFTLSRDNAKNTLYIQMTRLKPEDTAVYYWGQGTQVTVSS”, the “polyreactivity (PSR sort gate)” value is “low polyreactivity”.
Consider “QVQIVESGGGLVQAGGSLRLSCAASVRTFGRYVMGWYRQAPGKERELVAAISSGGRTYYADSVKGRFTISRDNAKNTVYLQMNSLKPEDNAVYYCAVYVAYLYSYYYWGQGTQVTVSS”, for which the “polyreactivity (PSR sort gate)” value is “low polyreactivity”.
To “QVQIVESGGGLVQAGGSLRLSCAPSGRIYGPYAIGLYRQEPGKERELDAAIRSGGSTNYADSVKGRFTISRDNAKNTVYLQMNSLNPEDTAVYYCNAVRHTYGYYSWGQGTQVTVSS” belongs “high polyreactivity”.
The same measure for “QVQIVESGGGLVQAGGSLRLSCASSGSTMPAYTMGWYRQAPGKERELVADISRRGGSTYYADSVKGRFTISRDNAKNNVYLHMNSLKPEDTPVYYCATTAKKSYDYWGQGTHVTVSS”: “high polyreactivity”; for “QVQIVESGGGLVQAGGSLRLSCPASGLTFAWYAMGWYRQAPWTERELVAAINRSGGSTSYADSVKGRFTISRDNAMNTVYLQMNSLKPEDTAVYYCAAQLGYTTLGLIYWGQGTQVTVSS”: “low polyreactivity”; for “QVQIVESGGGLVQAGGSLSLSCASSGSTIGDYAMGWYRQAPGKERELVAAINSGDSKNYADSVKGRFTISRDNAKNTVYLQMNSLKPEDTAVYYCAAEPLSISYVYYKYKYEYWGQGTQVTVSS”: “low polyreactivity”.
For the sequence “QVQIVESGGGLVQAVGSLRLSCAAYGSTFCANAMGCYRQAPGKERELVAAIRGTGGSTYADSVKGRFTISRDNAKNTVYLQMNSLKPEDTAVYYCNAKGRGWTAQYDYCGQGTQVTVSS”, the “polyreactivity (PSR sort gate)” value is listed as “low polyreactivity”.
The same measure for “QVQIVESGGRLVQAGCSLRLSCAASGRIFTRYAMGWYRQAPGKERELVASIRHSGGSTYYADSVKGRFTISRDNAKNTVYLQMNSLKPEDTAVYYCAARGKKGTRYNYNYWGHGTQVTVSS”: “high polyreactivity”.
On to “QVQIVESGGVLVQAGGSLRLRCAASGSTFNRYAMGWYRQAPGKERELVASITTSDSTNYADSVKGRFTISRDNAQNTVYLQMNRLKPEDTALYYCNAEVRGVWYTYDYWGQGTQVTVSS”, for which the “polyreactivity (PSR sort gate)” value is given as “low polyreactivity”.
The same measure for “QVQIVESGGVLVQPGGILRLSCAASGFTFDAYDMGWYRQAPGKERELVAANSWRGIDTTYADSVKWRFTISRDNAKNPVFLQMNSLKPEDTAVYYCAEFVSDATVGTSKGLDYWGQGTQVTVSS”: “low polyreactivity”.
To “QVQIVESGRGLVQAGGSLSLSCAASGNIFYRYTMGWYRQAPGKERELVAAISRTGGSTYYADSVKGRFTISRDNAKNTVYLQMNSLKPEDTAVYYCAVRYMDPPYFYSKRFGYWGQGTQVTVSS” belongs “high polyreactivity”.

(Values after the nanobody polyreactivity screen of Harvey et al. (2022).)
